In publication PMC4597100:

Key:
[1] = molecular target: MLL1(3745–3969) SET domain construct containing the WIN motif, AviTag, biotinylated (human) (UniProt Q03164)
[2] = molecular target: MLL4(5308–5537) SET domain construct containing the WIN motif, AviTag, biotinylated (human) (UniProt O14686)

UniProt Q03164, sequence (Q03164 3745-3969): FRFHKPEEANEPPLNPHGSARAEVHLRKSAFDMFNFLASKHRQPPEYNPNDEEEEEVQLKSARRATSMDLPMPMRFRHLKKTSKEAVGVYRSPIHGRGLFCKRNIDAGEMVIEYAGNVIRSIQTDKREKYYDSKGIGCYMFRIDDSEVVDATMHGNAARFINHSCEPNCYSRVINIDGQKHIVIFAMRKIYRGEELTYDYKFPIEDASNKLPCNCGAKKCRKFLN

With ARTKQTARKSTGGKAPRY [histone H3 amino terminal peptide substrate (…-Y), unmodified] the KM (H3 peptide) of methyltransferase activity without WRAD, saturating SAM [1] was 430 µM and the KM (H3 peptide) of methyltransferase activity without WRAD, saturating SAM [2] was 251 µM.
